Data published in patent publication US20230047413A1 (Janssen / Centocor, published 2023).
Read-outs that look alike come from different tables or passages of the source. Non-standard residues stand in square brackets, D forms with d. *: point of attachment. Biotin = O=C1N[C@H]2[C@H](CS[C@H]2CCCCC(=O)*)N1; pT = C[C@@H](OP(=O)(O)O)[C@H](N)C(=O)O; pS = N[C@@H](COP(=O)(O)O)C(=O)O; dPEG4 = PEG4 moiety

How the values were obtained:
Peptide-1 = molecular target: T1, Peptide-1 (human, phosphothreonine 212, phosphoserine 214, phosphothreonine 217 (tau 2N4R numbering); short chain biotin (SCBiot) and dPEG4 at the N-terminus; amide at the C-terminus); experiment: SPR ProteOn, peptide captured, Fab as analyte
T1 construct: also called tau peptide phosphorylated at T212/S214/T217
T1 sequence (peptide, as listed by the source): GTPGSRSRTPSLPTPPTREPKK
Procedure: (§1) The binding affinity of PT3 Fab towards each of the fourteen tau phosphopeptides shown in Table 6 was assessed by surface plasmon resonance (SPR) using a Bio-Rad ProteOn XPR36. Peptides were synthesized by standard chemical methods (New England Peptide) with short-chain biotin and a PEG4 moiety at the N-terminus. Biotinylated peptide was captured on a neutravidin-coated NLC biosensor chip and PT3 Fab was flowed over the surface to measure kinetic parameters.
(§2) All experiments were performed at 25° C. using phosphate buffered saline, pH 7.4, 0.005% Tween 20 (PBST) as both running buffer and sample dilution buffer. Prior to running samples, the NLC chip was conditioned by running PBST over the chip surface for 1 h. Approximately 5-10 RU of peptide was captured on the chip surface by diluting peptide to 10 ng/mL in PBST and injecting over the flow channels at 30 μL/min for 100 s. Serial dilutions of PT3 Fab (1.1-90 nM) were analyzed and, with the exception of Peptide-8, each concentration was measured in duplicate. After capture of peptides, the antibody titration was injected at 60 μL/min for 3 minutes (association phase), followed by 300 s of buffer only (dissociation phase).
(§3) The data were double referenced by subtraction of the interspot response and the curves generated by the buffer-only injection. The chip surface was regenerated using a single injection of 0.85% phosphoric acid at 30 μL/min for 100 s contact time, followed by four injections of running buffer before the next antibody titration injection. The data processing and kinetic analysis were done using the instrument software. The data were analyzed using a simple Langmuir 1:1 binding model.

Peptide-2 [1] = molecular target: T2, Peptide-2 (human, phosphothreonine 212, phosphothreonine 217 (tau 2N4R numbering); short chain biotin (SCBiot) and dPEG4 at the N-terminus; amide at the C-terminus); experiment: SPR ProteOn, peptide captured, Fab as analyte
T2 construct: also called pT212/pT217-tau peptide (Peptide-2)
Procedure: as §1, §2, §3

Peptide-3 = Peptide-3 (human, phosphoserine 214, phosphothreonine 217 (tau 2N4R numbering); SCBiot and dPEG4 at the N-terminus; amide at the C-terminus); experiment: SPR ProteOn, peptide captured, Fab as analyte
Procedure: as §1, §2, §3

Peptide-4 = Peptide-4 (human, phosphoserine 210, phosphothreonine 217 (tau 2N4R numbering); SCBiot and dPEG4 at the N-terminus; amide at the C-terminus); experiment: SPR ProteOn, peptide captured, Fab as analyte
Procedure: as §1, §2, §3

Peptide-5 = Peptide-5 (human, phosphoserine 210, phosphoserine 214, phosphothreonine 217 (tau 2N4R numbering); SCBiot and dPEG4 at the N-terminus; amide at the C-terminus); experiment: SPR ProteOn, peptide captured, Fab as analyte
Procedure: as §1, §2, §3

Peptide-6 = Peptide-6 (human, phosphothreonine 217 (tau 2N4R numbering); SCBiot and dPEG4 at the N-terminus; amide at the C-terminus); experiment: SPR ProteOn, peptide captured, Fab as analyte
Procedure: as §1, §2, §3

Peptide-7 = Peptide-7 (human, phosphothreonine 212, phosphoserine 214 (tau 2N4R numbering); SCBiot and dPEG4 at the N-terminus; amide at the C-terminus); experiment: SPR ProteOn, peptide captured, Fab as analyte
Procedure: as §1, §2, §3

Peptide-11 = molecular target: T3, Peptide-11 (human); experiment: SPR ProteOn, peptide captured, Fab as analyte
T3 peptide: {Biotin-dPEG4}-SPGTPG[pS]RSR[pT]P[pS]LPTPPT-NH2
Procedure: as §1, §2, §3

Peptide-2 [2] = molecular target: T2, Peptide-2; experiment: SPR ProteOn, peptide captured, Fab as analyte; remark: listed apart in the source
Procedure: (§4) A subset of HFA-PT3 monoclonal antibody variants, selected based on biophysical characterization and ELISA binding to PHF, were analyzed by Surface Plasmon Resonance (SPR) with a ProteOn XPR36 for binding to the following phosphopeptides: pT212/pT217-tau peptide (Peptide-2, SEQ ID NO: 48) and pT212-tau peptide (Peptide-8, SEQ ID NO: 54). All experiments were performed at 25° C. using PBST, pH 7.4, (Bio-Rad Cat#176-2720) as both running buffer and sample dilution buffer.
(§5) Fab/peptide binding. Biotinylated peptide was captured on a neutravidin-coated NLC biosensor chip pre-conditioned with PBST, and Fab was flowed over the surface to measure kinetic parameters. Approximately 5-10 RU of peptide was captured on the chip surface by diluting peptide to 10 ng/mL in PBST and injecting over the flow channels at 30 μL/min for 100 s. Serial dilutions of PT3 Fab (1.1 nM to 90 nM) were injected at 60 μL/min for 3 minutes (association phase), followed by 300 s of buffer only (dissociation phase).
(§6) Data were double referenced by subtraction of the interspot response, and the curves generated by the buffer only injection. The chip surface was regenerated with 0.85% phosphoric acid, followed by PBST injection before the next antibody titration injection. Data processing and analysis were performed using instrument software. The data were fit using a simple Langmuir 1:1 binding model.

Peptide-8 = molecular target: T4, Peptide-8 (human, phosphothreonine 212 (tau 2N4R numbering); SCBiot and dPEG4 at the N-terminus; amide at the C-terminus); experiment: SPR ProteOn, peptide captured, Fab as analyte; n=1
T4 construct: also called pT212-tau peptide (Peptide-8)
Procedure: as §1, §2, §3

Peptide-2 [3] = molecular target: T2, Peptide-2; experiment: SPR ProteOn, peptide captured, Fab as analyte; range of n=2; Peptide-2 (pT212/pT217); Table 6 run; lower end of n=2 range
Peptide-2 [4] = molecular target: T2, Peptide-2; experiment: SPR ProteOn, peptide captured, Fab as analyte; Peptide-2 (pT212/pT217); separate run of Table 12 (HFA Fab comparison), n=2
Procedure: as §4, §5, §6

B1: PT3 Fab (B187) (Fab, V domains shown)
VH: EVKLVESGGDLVKPGGSLKLSCAASGFTFSSYAMSWVRQNPEKRLEWVASISKGGNTYYPNSVKGRFTISRDNARNILYLQMSSLRSEDTALYYCARGWGDYGWFAYWGQVTLVTVSA
VL: DIKMTQSPSSMYASLGERVTITCKASQDINRYLNWFQQKPGKSPKTLIYRANRLLDGVPSRFSGSGSGQDYSLTISSLDYEDMGIYYCLQYDEFPLTFGDGTKLELK
notes: Chimeric Fab: mouse variable regions, human IgG1/kappa constant region, 6xHis tag at the C-terminus of the heavy chain; also called mouse parental Fab of PT3
In the case of B1, the koff (Peptide-1) is reported as 0.00028 s⁻¹, the kon (Peptide-1) is reported as 1.27e+06 M⁻¹ s⁻¹ and the koff (Peptide-2 [1]) is reported as 0.000168 s⁻¹. It also gave a kon (Peptide-2 [1]) of 764000 M⁻¹ s⁻¹, a koff (Peptide-3) of 0.00547 s⁻¹ and a kon (Peptide-3) of 1.04e+06 M⁻¹ s⁻¹. For the same binder, the koff (Peptide-4) was 0.00627 s⁻¹, the kon (Peptide-4) was 968000 M⁻¹ s⁻¹ and the koff (Peptide-5) was 0.00584 s⁻¹. For the same binder, the kon (Peptide-5) was 704000 M⁻¹ s⁻¹, the koff (Peptide-6) was 0.00616 s⁻¹ and the kon (Peptide-6) was 541000 M⁻¹ s⁻¹. For the same binder, the koff (Peptide-7) was 0.00555 s⁻¹, the kon (Peptide-7) was 422000 M⁻¹ s⁻¹ and the binding result (Peptide-11) was “no binding (tested: 1.1-90 nM)”. For the same binder, the koff (Peptide-2 [2]) was 6.39e-05 s⁻¹, the kon (Peptide-2 [2]) was 776000 M⁻¹ s⁻¹ and the Kd (Peptide-8) was 23 nM. The koff (Peptide-8) was 0.00646 s⁻¹, the kon (Peptide-8) was 281000 M⁻¹ s⁻¹ and the Kd (Peptide-2 [3]) was 0.09 to 0.45 nM. It also gave a Kd (Peptide-2 [4]) of 0.0874 nM.
